# Experimental data reported in the nanobody polyreactivity screen of Harvey et al. (2022).
# Assay: yeast display, Sf9 membrane polyspecificity reagent, FACS + sequencing; frameworks hold sequencing errors
# Procedure, shortened: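 Polyreactivity labels are assigned by the sorting gate from which each nanobody was recovered. The gates were low and high (top ~1%), set on anti-HA fluorescence for expression and streptavidin fluorescence for reagent binding. Before sorting, galactose-induced (36–48 hours) yeast display cells were stained for 1 hour at 4 °C with 10% biotinylated, detergent-solubilized Sf9 membrane reagent.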
row,Sequence,polyreactivity (PSR sort gate)
1,QVQLVESGGGLVQAGVSLLLSCAATGIIFSYYAMGWYRQAPGKERELVAAISWNSGSTYYADSVKGRFTISRDNAKNTVYLQMNSLKPEDTAVYYCAAESYYSYSYYRPYEYYYWGQGNQVTVSS,high polyreactivity
2,QVQLVESGGGLVQAGGSLRLSCAASGRTFSVNAMGWYRQAPGKERELVAAISWDGGSTYYADSVKGRFTISRDNAKNTVYLQMNSLKPEDTAVYYCNADYSIPGYYWPYDYWGQGTQVTVSS,low polyreactivity
3,QVQLVESGGGLVQAGGSLRLSCAASGNIFKGHVMGSYRKAPGKERELVAAISRSGGYTYYAVSVKGRFTISRDNAKNTVYLQMNSLKPADTAVYYCAAGRRLVRVVGGDYYGRYVYWGQGTQVTLSS,high polyreactivity
4,QVQLVESGGGLVQAGGSLRLSSAASGRTIAYYTKGWYRQAPGKVRELVAAITWTGGRTYYPDSVKGRFTISRDIAKNTVYLQMNSLQPEDTAVYYCATQHRAGAYYLYTPYDYWGQGTQVTVSS,high polyreactivity
5,QVQLVESGGGRVQAGGSLRLRCAASGRTFRYYAMVWYRQAPGKERELVAAISRTGGSTYYADSVKGRFTISRDNAKNNVYLQMNSLKPEDTAVYYCAARYAEYGSWGQGTQVTVSS,high polyreactivity
6,QVQLVESGGGLDQAGGSLRLRCAASGRNFRWYTMVWYRQAPGKEREFVAAITWSDTSTSYADSVKGRFTISRDNAKNTVYLQMNSLIPEYTAVYYCNAGDKVSSYWYDYWGQGTQVNVSS,low polyreactivity
7,QVQLVESGGGLVQAGGSLRLSCAASGSIFYDYAMGWYRQAPGKERELVAAINSGDSTYYADSVKGRFTISRDNAKNTVYLQMNSLKPEDTAVYYCAATYFSPYIEYDYWGQGTQVTVSS,low polyreactivity
8,QVQLVESGGGLVQAGGSLRLSCAASSRIFVAKAMGWYRKAPGKERELVATITRGASTNYADSVKGRFTISRDNAKNTVYLQMNRLKPEDTAVYYCDKRSYTGYEYWGQGTQVTVSS,low polyreactivity
9,QVQLVESGGGLVQAGGSLRLSCAASGYIFRYYAMGWYRQAPGKERELVAAISRSGGNTYYADSVKGRFTISRDNAMITVYLQMNSLKPEDTAVYYCAVVLSTYSYADYDYWGQGTQVTVSS,high polyreactivity
10,QVQLVESGGGLVQAGGSLRLSCADSGSTPVYAMGWYIQAPGKERELVAAIRRRASSTYYADSVKGRLTISRDNAKNTVYLQMNSLKPEDTAVYYCAVGRLNGVLLGYWGQGTQVTVSS,high polyreactivity
11,QVQLVESGGGLVQAGGSLRLSCAASGRIFSYYDMGWYRQAPGKERELVAAITWRGGSTYYADSVKGRFTISRDNAKNTVYLQMNSLKPEDTAVYYCAADWYPSIWEYDYWGQGSQVTVSS,low polyreactivity
12,QVQLVESGGGLVQAGGSLRLSCAASGSIFSWNAMGWYRQAPGKERELVAAITSGGSTYYADSVKGRFTISRDNAKNTVYLQMNSLKPEDTAVYYCGWTYHYHRESWGQGTQVTVSS,low polyreactivity
13,QVQLVESGGVLDQAGGSLGLSCAASGRTLRKYAMGWYRQAPGKERELVAAITWTGGTTYYADSVKGRFTISRDNAKNTVYLQMNTLKPEDTAFYFCGTVRRYGYGYDYWGQGTQVTVSS,high polyreactivity
14,QVQLVESGGGLVQAGGSLRLSCAASGRILSRYAMGWYRQAPGKERELVAAINKSGGSTYYADSVKGRFTISRDNAKNTVYLQMNSLKPEDTAVFYCNAVYYWYKGDYWGQGTQVTVSS,high polyreactivity
15,QVHLVESGGGLVQAGGSLRLSCAASGRIFVFNAMGWYRQAPGKDRELVAAISRSAFSTYYADSVKGRFTISRDNAKNTVYLHMISLIPEDTAVYYCTDERTYWFFWEMDSWGQGTQVTVSS,low polyreactivity
16,QVQLVDSGGGLVQAGGSLRLSCAASGRILSTYPMGWYRPAPGKERELVAAITRTSGSTYYADSVKGRFTISRDNAKNTVFLQMNSLKPEDTEVYYCAADTWLITWSGQYNSWGQGTQVTVSS,low polyreactivity
17,QVQLVESGGGLVQAGGSLRLSCAASGLTFKSNAMGWYRPAPGKERELVASISKRGGTTYYADSVKGRFTISRDNAKNTVYLQMNSLKPEDTAVYYCAAQSRATTYSWWTGSDYWGQGTQVTVSS,high polyreactivity
18,QVQLVESGGGLVQAGGSLLLICAASGLTFYAKVMGWYRQAPGKERELVASISRSGGRTYYADSVKGSFTISRDNAKNTVYLQMNSLKPEDTAVYYSAAADQVGQEDDYWGQGSQVTVSS,low polyreactivity
19,QVQLVESGGGLVQAGGSLRLSCAASGSTFSANAMGWYRQAPGKERELVASISRRGGSTYYADSVKGRFTISRDYAKNTVYLQMNSLKPEDTAVYYCNKRIARQGSPSEYGRSQIGYYYWGQGTQVTVSS,high polyreactivity
20,QVQLVESGGGLVQAGGSLRLSCAASGRTFGHNAMGRYRQAPGKEREFVAAITRRGGSTYYADSVKGRFTISRDNAKNTVYLQMNSLKPEDTAVYYCATRDYVNGPGIFNYWGQGTQVTVSS,low polyreactivity
21,QVQLVESGGGLVQAGGSLRLSCAASGSIFSANAMGWYRQAPGKERELVASITGDGSTNYADSVKGRFTISRDNAKNTVYLQMNSLKPEDTAVYYCAADIGSWYDYWGQGTQVTVSS,low polyreactivity
22,QVQLVESGGGLVQAGGILRLSCAASGITFGGYAMAWYRQAPGKERELVAAISRGGGSTNYADSVKGRFTISRDNAKNTVYLQINSLKPEDTAVYYCNARRQNSRYDYWGQGTQVTVSS,low polyreactivity

row,Sequence,polyreactivity (PSR sort gate)
1,QVQLVESGGGLVQAGGSLRLSCAASGSIFQSNAMGWSRQAPGKERELVAAISSRGGRTYYADSVKGRFTISRDNAKYTVYLQLNSLKPEDTAVYYCAVVPFTEHDYWGQGTQVTVSS,high polyreactivity
2,QVQLVESGGGLLQAGGSLRLSCAASGSTFWFYAMGWYRQAPGKERELVDVISNSGSTYYADSEKGRFTISRDNAKNTVYLQMNSLKPEDTAVYNCAADGFYYPNWGRFSYYYWGQGTLVTVSS,low polyreactivity
3,QVQLVESGGGLVQAGGSLRLSCAASGFTIGRYDMGWYRQAPGKERELVAAISWSGGSTYYADSVKGRFTISRDNAKNTVYLQMNSLKPEDTAVYYCNAAYYGYENLSKRGYWGQGTQVTVSS,high polyreactivity
4,QGQLVESGGGLVQAGGSLRLSCAASGSTFYTNAMGWYRQAPGKERELVAAISGSGGSTYYADSVKGRFTISRDNAKNTVYVQMNSRKPEDTAVYYCAARSRYYYTRFDYWGQGTQVTVSS,low polyreactivity
5,QVQLVESGGGLVQAGGSLRLSCAASGRIFDRNAMGWYRQAPGKERELVAAISSRGTSTYYADSVKGRFTISRDNAKNTVYLQMNSLKPEDTAVYYCAARPRYASDEFGYWGQGTQVTVSS,low polyreactivity
6,QVQLVESGGGLVQAGGSLRLSCAASGSTFIFYTMGWYRQAPGKERELVAAITSNGGSTYYADSVKGRFTISRDNAKNTVYLQMNSLKPEDTAVYYCARVDRWRRYRYIFSGYDYWGQGTQVTVSS,high polyreactivity
7,QVQLVESGGGLVQAGGRLRLSCAASGSTFKAYAMGWYRQAPGKERELVAAISSGGSRTYYADSVKGRFTISRDNAKITVYLQMHRLKPEDIEVYYCAARKADTVFKFEYWGQGTLVTVSS,high polyreactivity
8,QVQLVESGGGLVQAGGSLRLSCAASGSIFGWYAMGGYRQAPGKESELVASISVTAGSTYYADSVKWRFTMSRDYAKNTVYLQMNSLKPEDTAVYYCAADDYTADAVQRFYYWGQGTQVTVSS,low polyreactivity
9,QVQLVESGGGLVQAGGSLSLSCAASAHTFVTNAMGWYRQAPGKERELVAAISRSGGHTYYADSVKGRFTISRDNAKNTVYLQMNSLKPEDTAVYYCAKTRGPRTLYDYWGQGTQVTVSS,high polyreactivity
10,QVQLVESGGGLVQPGGSLRLSCAASGFTFYTYAMGWYRQAPGKERELVATISSGGRTNYADSVKGRFTISRDNAKNTVYLQKNSLKPEDTAVYYCNIRLRGGAVRFDSWGQGTQVTVSS,low polyreactivity
11,QVQLVESGGGLVQAVGSLRLSCAASGSIFPVYAMGWYRQAPGKERELVADITYTTGSTYYADSVKRRFTISRDNAKNTFYLQMNSLKPEDTAVYYCAKDFGFQSDSWGQGTQVTVSS,low polyreactivity
12,QVQLVQSGGGLVQAGVSLRLSCAASGLIIGVYAMGWYRQAPGKERELVAAITDGGSTYYADSVKGRFTISRDNAKNTVYLQMHSLKPEDTAVYYCNAEFRSSDYDYWGQGTQVTVSS,low polyreactivity
13,QVQLVESGGGLVQAGGSLRLSCAASGNTFAQNTMGWYRQAPGKEREFVAGITFSGTGTYYADSVKGRFTISRDNAKNTVYLQMNSLKPEDTAVYYCAAESVYTWYYQDDDDYWGQGTQVTVSS,low polyreactivity
14,QVQLEESGGGLVQAGGSLRLSCAASGRIFRANAMGRYRQAPGKERELVADITRRGASTYYADSVKGRFTISRDNAKNTVYLQMNSLKPEDTAVYYCNARGWPSSLLYLRDRYQMDYWGQGTQVTVSS,low polyreactivity
15,QVQLVESGGALVQAGGSLRLSCAASGRTFLGYGMGWYRQAPGKERVLVAAITSGGGSTYYADSVKGRFTISRDNAKNPVYLQMNSLKPEDTAVYYCSAKYYRAYCPHSRTRGYWGQGTQVTVSS,high polyreactivity
16,QVQLVESGGGLVQAGGSLRLSCAASGRTFSRYAMGWYRPAPGKERELVAAISWRGSSTYYADSVKGRFTISRDNAKNTVYLQMNSLKPEYTAVYYCNTVTYPYVPALFDYWGQGTQVTVSS,high polyreactivity
17,QVHLVESGGGLVQAGGSLRLSCAASGIIFSDYALGWYRQAPGKERELVAAITSSGCSTYYADSVKGRFTISRDNAKNTVYLQMNSLKPEDTAVYYCNARYRRKSWRPFDYWGQGTQVTVSS,high polyreactivity
18,QVHLVESCGGLVQAGGSLRLSCAASGSTIETYAMGWNRQAPGKDREMVATISLSGGRTYYADSVKGRFTISRDYAKNTVYLQMNSLKPEDTEVYYCNADGYGNVGGGDSWGQGTQVTVSS,low polyreactivity
19,QVQLVESGGGLVQAGGSLRLSCAASGSIFLRYAMGWYRQAPGKERELVATITSGGRTKYADSVKGRFTISRDNAKNTVYLQMNSLKPEDTAVYYCNAKTQSLKRSTFNYWGQGTQVTVSS,low polyreactivity
20,QVQLLESGGGIVQAGGSLRLSCAASGSIFRYYAMGWYRQAPGKEREFVASITYRGGRTYYADSVKGRFTISRDNAKNTVYLQMNSLKPEDTAVYYCAARTRAGAWTSKYHDYWGQGTQVTVSS,high polyreactivity
21,QVQLVESGGGLVQAGGSLRLSCAASGFTSWDIDMGCYRQAPGIEREMVAAITGGGTTNYADSVKGRFTISRDNAKNTVYLQMNSLKPEDTAVYYCAAKPWWYSGYDYWGQGTQVTVSS,low polyreactivity
